{
  "source": "patent US20260176653",
  "proteins": {"B1": {"name": "TEV Protease (protein)", "chain": "MGESLFKGPRDYNPISSTICHLTNESDGHTTSLYGIGFGPFIITNKHLFRRNNGTLLVQSLHGVFKVKNTTTLQQHLIDGRDMIIIRMPKDFPPFPQKLKFREPQREERICLVTTNFQTKSMSSMVSDTSCTFPSSDGIFWKHWIQTKDGQCGSPLVSTRDGFIVGIHSASNFTNTNNYFTSVPKNFMELLTNQEAQQWVSGWRLNADSVLWGGHKVFMVKPEEPFQPVKEATQL"}},
  "target": "T1, Bcl-TEV IRES iADAR (tandem-dimer MCP, BAD peptide fused to the N-terminus of ADAR2-DD(E488Q & F697Y), TEV cut site, Bcl-xL, TagBFP)",
  "T1 chain": "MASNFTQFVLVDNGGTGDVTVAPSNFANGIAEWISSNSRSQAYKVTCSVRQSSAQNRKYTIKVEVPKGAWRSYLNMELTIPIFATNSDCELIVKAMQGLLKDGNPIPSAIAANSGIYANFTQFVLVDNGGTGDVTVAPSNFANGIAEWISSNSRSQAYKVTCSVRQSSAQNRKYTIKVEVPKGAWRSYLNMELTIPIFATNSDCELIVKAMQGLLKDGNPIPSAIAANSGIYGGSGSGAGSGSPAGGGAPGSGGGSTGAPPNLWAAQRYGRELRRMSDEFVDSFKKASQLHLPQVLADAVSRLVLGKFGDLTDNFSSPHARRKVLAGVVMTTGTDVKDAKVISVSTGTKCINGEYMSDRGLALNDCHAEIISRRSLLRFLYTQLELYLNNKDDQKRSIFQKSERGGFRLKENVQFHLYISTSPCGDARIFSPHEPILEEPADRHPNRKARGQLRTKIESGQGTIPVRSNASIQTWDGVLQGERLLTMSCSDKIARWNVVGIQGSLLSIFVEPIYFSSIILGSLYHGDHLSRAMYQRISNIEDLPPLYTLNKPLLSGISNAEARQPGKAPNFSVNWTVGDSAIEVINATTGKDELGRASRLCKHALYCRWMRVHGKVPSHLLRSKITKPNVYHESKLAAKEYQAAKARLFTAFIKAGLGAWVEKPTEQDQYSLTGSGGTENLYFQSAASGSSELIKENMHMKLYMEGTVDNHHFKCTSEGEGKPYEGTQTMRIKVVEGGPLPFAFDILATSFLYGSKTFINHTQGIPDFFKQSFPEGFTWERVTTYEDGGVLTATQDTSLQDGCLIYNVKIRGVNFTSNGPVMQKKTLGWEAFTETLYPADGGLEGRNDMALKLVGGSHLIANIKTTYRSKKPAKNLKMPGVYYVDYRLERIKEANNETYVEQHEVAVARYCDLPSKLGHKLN",
  "data": [
    {"protein": "B1", "values": [
      {"measurement": "fold change of the mean RFU (mNeonGreen-to-mCherry), Bcl-TEV IRES iADAR co-transfected with TEV protease", "result": 17, "unit": "× for TEV protease"}
    ]}
  ]
}
